Assay results: patent publication US20260248892A1 (Sanofi, published 2026)

How the values were obtained:
Test in all cases: cell-based or functional assay
[1] = target: human insulin receptor isoform A (human, UniProt P06213-2 28-1370)
Pig IR = Pig IR (pig, UniProt F1SCL0 28-1382)
[2] = target: human insulin receptor isoform B (human, UniProt P06213 28-1382)
Rat IR = Rat IR (rat, UniProt P15127 27-1383)
Sequence of Rat IR (P15127 27-1383): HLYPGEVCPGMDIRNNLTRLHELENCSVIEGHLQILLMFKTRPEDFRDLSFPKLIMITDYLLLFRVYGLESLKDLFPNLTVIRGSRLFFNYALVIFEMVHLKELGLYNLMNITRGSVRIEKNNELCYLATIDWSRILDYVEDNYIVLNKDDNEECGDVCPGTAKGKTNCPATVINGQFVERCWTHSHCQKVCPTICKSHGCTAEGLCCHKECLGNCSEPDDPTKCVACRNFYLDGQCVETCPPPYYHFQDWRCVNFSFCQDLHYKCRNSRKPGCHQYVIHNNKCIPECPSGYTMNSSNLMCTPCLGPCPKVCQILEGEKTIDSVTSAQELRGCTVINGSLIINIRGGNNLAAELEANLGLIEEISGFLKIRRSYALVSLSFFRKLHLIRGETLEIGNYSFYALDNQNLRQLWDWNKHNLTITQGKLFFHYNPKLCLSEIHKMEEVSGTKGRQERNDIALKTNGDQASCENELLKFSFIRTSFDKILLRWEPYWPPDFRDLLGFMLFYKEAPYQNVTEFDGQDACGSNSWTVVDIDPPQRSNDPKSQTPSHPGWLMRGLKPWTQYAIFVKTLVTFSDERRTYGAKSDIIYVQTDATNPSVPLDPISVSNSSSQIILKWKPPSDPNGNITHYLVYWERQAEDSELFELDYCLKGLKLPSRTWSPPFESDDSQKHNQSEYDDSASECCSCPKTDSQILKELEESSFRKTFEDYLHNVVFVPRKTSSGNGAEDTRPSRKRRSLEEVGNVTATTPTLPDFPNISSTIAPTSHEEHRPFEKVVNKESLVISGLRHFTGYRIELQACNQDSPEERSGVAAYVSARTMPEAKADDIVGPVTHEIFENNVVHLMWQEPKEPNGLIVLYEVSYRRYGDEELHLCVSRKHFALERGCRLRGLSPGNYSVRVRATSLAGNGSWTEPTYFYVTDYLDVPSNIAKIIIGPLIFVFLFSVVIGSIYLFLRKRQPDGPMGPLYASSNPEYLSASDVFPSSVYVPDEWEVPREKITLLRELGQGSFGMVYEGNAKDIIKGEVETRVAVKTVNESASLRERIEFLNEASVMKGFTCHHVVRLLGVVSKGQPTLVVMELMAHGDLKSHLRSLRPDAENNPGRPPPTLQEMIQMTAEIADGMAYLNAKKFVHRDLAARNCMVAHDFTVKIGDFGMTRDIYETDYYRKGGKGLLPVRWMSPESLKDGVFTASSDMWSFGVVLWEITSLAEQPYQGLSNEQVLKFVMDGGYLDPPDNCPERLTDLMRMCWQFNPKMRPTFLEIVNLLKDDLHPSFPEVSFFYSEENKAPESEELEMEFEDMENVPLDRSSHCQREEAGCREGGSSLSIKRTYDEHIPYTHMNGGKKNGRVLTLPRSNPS

| Binder | hIR-A phosphorylation [EC50 nM] mean [1] [nM] | Pig IR phosphorylation [EC 50 nM] mean (Pig IR) [nM] | hIR-B-phosphorylation [EC50 nM] mean [2] [nM] | Rat IR phosphorylation [EC50 nM] mean (Rat IR) [nM] |
| --- | --- | --- | --- | --- |
| scl-Fc fusion protein INS023 (Fc fusion) SFVNQHLCGSHLVEALELVCGERGFHYTPKTGSYPGGVGIVEQCCTSICSLSQLENYCGGEAEDLQVGQVELGGGPGAGSLQPEGSLQGGPSVFLFPPKPKDTLMISRTPEVTCVVVDVSHEDPEVKFNWYVDGVEVHNAKTKPREEQYNSTYRVVSVLTVLHQDWLNGKEYKCKVSNKALPAPIEKTISKAKGQPREPQVYTLPPSRDELTKNQVSLTCLVKGFYPSDIAVEWESNGQPENNYKTTPPVLDSDGSFFLYSKLTVDKSRWQQGNVFSCSVMHEALHNHYTQKSLSLSPGGGGGSAESKYGPPCPPCPA | 408 | 29.9 | 59.8 | 381 |
| scl-Fc fusion protein INS022 (Fc fusion) FVNQHLCGSHLVEALELVCGERGFHYTPKTGSYPGGVGIVEQCCTSICSLSQLENYCGGEAEDLQVGQVELGGGPGAGSLQPEGSLQGGPSVFLFPPKPKDTLMISRTPEVTCVVVDVSHEDPEVKFNWYVDGVEVHNAKTKPREEQYNSTYRVVSVLTVLHQDWLNGKEYKCKVSNKALPAPIEKTISKAKGQPREPQVYTLPPSRDELTKNQVSLTCLVKGFYPSDIAVEWESNGQPENNYKTTPPVLDSDGSFFLYSKLTVDKSRWQQGNVFSCSVMHEALHNHYTQKSLSLSPGGGGGSAESKYGPPCPPCPA | 215 | 15.9 | 42.2 | 64.9 |
